In patent WO2018083240A1 (dated 2018):
Where a chain is given by its changes, count along the chain named. One block for each binder: values may come before it.

How the values were obtained:
[1] = target: Screening Peptide DDR1_HUMAN(788-808)[pY796] (human); experiment: ELISA, biotinylated peptide on streptavidin plate, 30 ul transfection supernatant
[2] = target: T1, Screening Peptide DDR1_HUMAN(788-808) (human, N-terminal Glu(Bi-PEG) (residue 1 of the letters given); C-terminal amide (-NH2)); experiment: as above
T1 construct: The leading E stands for the printed Glu(Bi-PEG), which is not part of DDR1 788-808; also called non-phosphorylated screening peptide
T1 peptide: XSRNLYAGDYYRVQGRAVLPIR

[3] = target: Screening Peptide DDR1_HUMAN(788-808)[pY796] (human); experiment: SPR (Biacore T200), antibody captured by goat anti-rabbit Fc, peptide as analyte, 25 C; value of Table 3 as repeated in the description

OD 405 [1]: 3.12 OD 405
OD 405 [2]: 0.286 OD 405
Kd [3]: 0.051 nM
B1: rabbit monoclonal anti-pY796-DDR1 antibody 22D9 (antibody, V domains shown)
VH: QSVEESGGRLVTPGTPLTLTCKVSGFSLSNYHMIWVRQAPGKGLEWIGIISRRGTTWYASWVKGRFTISKSSTTVDLKITSPTTEDTATYFCARGGVDSSYRDLWGPGTLVTVSS
VL: QVLTQTPSSVSAAVGGTVTINCQSNQRVANVNCLAWYQQKPGQPPKLLIYDASSLASGVPSRFSGSGSGTQFTLSISGVQCGDAATYYCQGTYATFGASAWYGDAFGGGTEVVVE
notes: Full-length rabbit IgG (150 kDa), expressed in HEK293 cells; Same variable domains as 31A5; also called clone 22D9

OD 405 [1]: 2.98 OD 405
OD 405 [2]: 0.253 OD 405
B2: rabbit monoclonal anti-pY796-DDR1 antibody 31A5 (antibody, V domains shown)
VH: B1 VH
VL: B1 VL
notes: Full-length rabbit IgG (150 kDa), expressed in HEK293 cells; Same variable domains as 22D9; also called clone 31A5

OD 405 [1]: 3.06 OD 405
OD 405 [2]: 0.313 OD 405
Kd [3]: 0.038 nM
B3: rabbit monoclonal anti-pY796-DDR1 antibody 20G11 (antibody, V domains shown)
VH: B1 VH with S71G
VL: B1 VL with N25S
notes: Full-length rabbit IgG (150 kDa), recombinantly expressed in HEK293 cells; also called clone 20G11
